# Assay results as given in the Human Domainome abundance scans (Beltran et al. 2025).
# ± gives the uncertainty stated by the source.
# B1: Protein C-ets-1, residues 55 to 135; numbered along this chain, P14921 (parent)
# chain: GFTKEQQRLGIPKDPRQWTETHVRDWVMWAVNEFSLKGVDFQKFCMNGAALCALGKDCFLELAPDFVGDILWEHLEILQKE
# Variants of: B1
# Assay: abundance fitness (aPCA) (normalised: wild type 0, dead -1); higher = more abundant; growth selection in yeast, the domain comes from the species named
# Settings: Homo sapiens
row,Variant,abundance fitness
1,P12D,-0.371 ± 0.067
2,G1N,0.143 ± 0.27
3,A30Q,-0.183 ± 0.051
4,E73P,-0.898 ± 0.11
5,W18M,-1.08 ± 0.27
6,V39C,-0.194 ± 0.06
7,G38E,-0.103 ± 0.052
8,G1I,-0.077 ± 0.16
9,K37H,-0.048 ± 0.068
10,F44T,-0.766 ± 0.16
11,K13E,-0.084 ± 0.053
12,A53L,-0.227 ± 0.032
13,D40T,-0.363 ± 0.065
14,G68L,-0.549 ± 0.045
15,L36F,-0.139 ± 0.059
16,K43I,-0.424 ± 0.11
17,Q42L,-0.307 ± 0.036
18,G1E,-0.042 ± 0.068
19,D57W,-0.464 ± 0.06
20,I70L,-0.077 ± 0.037
21,H22S,-0.472 ± 0.044
22,W26S,-0.968 ± 0.05
23,E76A,-0.043 ± 0.044
24,V31C,-0.013 ± 0.045

row,Variant,abundance fitness
1,T3N,-0.121 ± 0.081
2,A53S,0.016 ± 0.031
3,E33H,-0.006 ± 0.066
4,V67T,-0.057 ± 0.086
5,C58T,0.016 ± 0.042
6,K4L,-0.085 ± 0.042
7,L36R,-1.05 ± 0.094
8,L9N,-0.137 ± 0.11
9,F2T,-0.23 ± 0.12
10,G38R,-0.18 ± 0.029
11,N32G,-0.018 ± 0.023
12,M46Y,-0.203 ± 0.083
13,V39W,-0.445 ± 0.051
14,P15V,-0.1 ± 0.038
15,L71K,-0.978 ± 0.27
16,C52E,-0.542 ± 0.038
17,A50E,0.02 ± 0.04
18,P64E,-0.239 ± 0.057
19,L62N,-0.419 ± 0.12
20,A53E,0.052 ± 0.044
21,W72N,-0.746 ± 0.2
22,T3E,0.011 ± 0.081
23,V39L,-0.141 ± 0.042
24,H74E,-0.027 ± 0.064

row,Variant,abundance fitness
1,P64M,-1.06 ± 0.2
2,H74Y,-0.454 ± 0.12
3,A63D,-0.873 ± 0.13
4,L9V,-0.126 ± 0.036
5,T3I,-0.005 ± 0.049
6,V27K,-0.983 ± 0.39
7,F59M,-0.239 ± 0.048
8,F41V,0.044 ± 0.028
9,C58W,-0.101 ± 0.036
10,I70V,-0.038 ± 0.043
11,E76M,0.04 ± 0.063
12,C52G,-0.562 ± 0.024
13,D57H,-0.049 ± 0.058
14,M28W,-0.11 ± 0.039
15,L36P,-0.725 ± 0.084
16,Q7T,-0.06 ± 0.047
17,E76K,-0.053 ± 0.09
18,L9I,-0.178 ± 0.086
19,C52A,-0.303 ± 0.029
20,W18A,-0.967 ± 0.082
21,G38T,-0.201 ± 0.047
22,P15E,-0.974 ± 0.14
23,K13H,-0.04 ± 0.084
24,G68S,-0.124 ± 0.036

row,Variant,abundance fitness
1,G48I,-1.03 ± 0.29
2,A53W,-0.583 ± 0.045
3,E33Q,-0.099 ± 0.051
4,C52N,-0.497 ± 0.075
5,L54D,-0.791 ± 0.092
6,I77P,-0.346 ± 0.057
7,I70P,-0.289 ± 0.039
8,A63K,-0.635 ± 0.096
9,Q42N,-0.047 ± 0.081
10,Q6G,-0.101 ± 0.028
11,S35M,-0.142 ± 0.048
12,E20N,-0.114 ± 0.072
13,F59Y,-0.869 ± 0.17
14,W26L,-0.966 ± 0.052
15,V23E,-1.03 ± 0.26
16,L75P,-0.898 ± 0.14
17,V27F,-0.214 ± 0.046
18,D69Y,-0.038 ± 0.089
19,F34R,-0.3 ± 0.029
20,I11M,-0.043 ± 0.05
21,F44A,-0.769 ± 0.065
22,R24M,0.023 ± 0.062
23,Q6R,-0.041 ± 0.031
24,K4G,-0.054 ± 0.038

row,Variant,abundance fitness
1,V67W,-0.414 ± 0.096
2,V67R,-0.167 ± 0.048
3,L78S,-0.508 ± 0.049
4,F34W,-0.039 ± 0.042
5,C58F,-0.096 ± 0.051
6,A50P,-0.811 ± 0.072
7,T19W,-0.945 ± 0.11
8,L60Q,0.027 ± 0.067
9,W29I,-0.803 ± 0.11
10,E61Y,-0.908 ± 0.26
11,S35I,-0.539 ± 0.15
12,G10T,-0.103 ± 0.047
13,M46T,-0.477 ± 0.058
14,T19P,-0.936 ± 0.091
15,K4N,0.024 ± 0.11
16,E20C,-0.105 ± 0.042
17,V67C,-0.04 ± 0.095
18,K13T,-0.064 ± 0.062
19,W18T,-0.999 ± 0.13
20,E61N,-0.022 ± 0.073
21,R8P,-0.132 ± 0.047
22,K13W,-0.117 ± 0.05
23,M46G,-0.671 ± 0.046
24,V23Y,-0.955 ± 0.2

row,Variant,abundance fitness
1,L78N,-0.775 ± 0.15
2,V31H,-0.495 ± 0.071
3,T21L,-0.064 ± 0.037
4,V23W,-0.822 ± 0.1
5,M28T,0.07 ± 0.045
6,V39A,-0.511 ± 0.043
7,F66N,0.073 ± 0.094
8,D14H,-0.155 ± 0.044
9,F59L,-0.252 ± 0.032
10,V67E,0.081 ± 0.094
11,E73I,-0.651 ± 0.15
12,L78W,-0.244 ± 0.047
13,L71T,-0.883 ± 0.14
14,D65V,-0.043 ± 0.041
15,H22E,-0.062 ± 0.057
16,L62Q,-0.3 ± 0.053
17,W72D,-1.07 ± 0.38
18,L71A,-1.15 ± 0.21
19,D65T,0.027 ± 0.09
20,R8Q,-0.083 ± 0.06
21,W26N,-0.865 ± 0.096
22,K43S,-0.185 ± 0.043
23,K13V,-0.1 ± 0.049
24,D57S,-0.027 ± 0.03

row,Variant,abundance fitness
1,D25F,-0.124 ± 0.055
2,Q7P,-0.294 ± 0.048
3,H22Q,-0.063 ± 0.049
4,N47Q,-0.277 ± 0.049
5,E73L,-0.246 ± 0.035
6,A53K,-0.021 ± 0.048
7,A49D,-0.04 ± 0.032
8,E5F,-0.088 ± 0.07
9,A50Y,-0.351 ± 0.1
10,I77F,-0.013 ± 0.067
11,K13Y,-0.249 ± 0.11
12,P12R,-0.709 ± 0.058
13,C45A,0.053 ± 0.033
14,T3W,-0.031 ± 0.075
15,F41T,0.007 ± 0.047
16,A53R,-0.046 ± 0.024
17,V23L,-0.728 ± 0.06
18,N47S,-0.003 ± 0.034
19,I11P,-0.465 ± 0.056
20,E5M,-0.018 ± 0.059
21,L71E,-0.881 ± 0.15
22,L62S,-0.401 ± 0.048
23,N32P,-0.49 ± 0.045
